Test results from patent US20200234789A1, “DESIGNED PROTEINS FOR LIGAND BINDING” (THE REGENTS OF THE UNIVERSITY OF CALIFORNIA, priority 2017, published 2020).

B1: PS2: second designed porphyrin-binding protein with redesigned core (Ser94, Trp68), SEQ ID NO:7 (protein)
chain: SEFEKLRQTGDEIIQLLQRLREAIDKGDDDSLEQILEELEEAFQKHRQLFENRQEAADTEFAKQGDQWLQLFQRIREAIDKGDKDSLEQLFEESEQGIQKIRELAEKKN
B2: PS1 D103-109: PS1 variant with 7 terminal residues near the ligand binding site deleted, SEQ ID NO:8 (protein)
chain: EFEKLRQTGDELVQAFQRLREIFDKGDDDSLEQVLEEIEELIQKHRQLFDNRQEAADTEAAKQGDQWVQLFQRFREAIDKGDKDSLEQLLEELEQALQKIR

Assays:
[1] = Porphyrin binding to apo-protein, electronic absorption spectra ((CF3)4PZn loading)
Experimental: FIGS. 3A-3D. Biophysical characterization of apo- and holo-PS1. FIG. 3A: Electronic absorption and emission spectra of (CF3)4PZn/PS1 holo-protein and (CF3)4PZn in toluene solvent. […] FIG. 3B: Determination of KD by apo-PS1 titration into a buffer solution (100 mM NaCl, 50 mM NaPi, pH 7.5) of (CF3)4PZn with 1% w/v octyl-b-D-glucopyranoside. […] FIG. 3C: Circular dichroism (CD) spectra of apo- and holo-PS1 in 50 mM NaPi, 100 mM NaCl, pH 7.5 as a function of temperature. The transitions appear reversible based on the fact that the spectra are identical after cooling to room temperature. Units are in molar residue ellipticity. […] FIG. 3D: Pump-probe transient absorption spectra of (CF3)4PZn bound in the interior of holo-PS1 at 21° C. and 100° C. […] Inset exemplifies identical transient dynamics (primarily intersystem crossing from S1 to T1) at ΔAbs.=482 nm (scaled). Experimental conditions: solvent=50 mM NaPi, 100 mM NaCl, pH 7.5; excitation wavelength=600±5 nm; magic-angle polarization between pump and probe pulses; pump-probe cross-correlation of ˜250 fs.
FIG. 10. Absorption spectra of (CF3)4PZn/PS1 and (CF3)4PZn/PS2 complexes. […] Experimental conditions: buffer=100 mM NaCl, 50 mM NaPi, pH 7.5.
A 2-fold excess of the cofactor (CF3)4PZn was added from a 4 mM DMSO stock solution to a 50 mM NaPi, 100 mM NaCl, pH 7.5 buffer with apo-protein (Note that final DMSO concentrations were kept <1%.). Buffer solution of apo-PS1 protein was heated for 5 minutes at 50° C., (CF3)4PZn was then added from the DMSO stock solution, the resultant mixture was vortexed for 5 seconds, and placed back in the heat block at 50° C. for 15 minutes, with vortexing every 3 minutes. The protein/cofactor solution was then spun at 14000×g in a Amicon Ultra-0.5 mL centrifuge filter for 10 min, three times, replacing the buffer to 0.5 mL after each 10 min spin. Finally, the protein solution was spun for 4 min at 12000×g in an Amicon ultrafree-MC GV filter (UFC30GV0S). The holo-PS1 sample was then used for spectroscopic experiments immediately afterward, and diluted to an appropriate concentration if necessary. Binding of (CF3)4PFe was carried out in the same fashion, with the exception that the porphyrin was first dissolved in a stock of DMSO/CHCl3.
Electronic absorption spectra were collected using a Shimadzu UV-1700 UV-Vis spectrophotometer or Cary 5000 spectrophotometer. Steady-state emission spectra were obtained on FLS920P spectrophotometer (Edinburgh Instruments Ltd. Livingston, UK) in 1 cm quartz optical cells. The steady-state emission spectra were corrected using the correction factor generated by the manufacturer.

[2] = Binding of endogenous heme on expression in E. coli (absorption spectra); assay type: cell-based; conditions: expressed in E. coli, Soret and Q bands at 410 and 550 nm
Experimental: FIGS. 18A-18B. enFold proteins are capable of noncovalently binding endogenous ligands in the cell. […] Inset: E. coli cultures of after induction). FIG. 18B: Denovo proteins from binary sequence patterning. Previous studies have only been able to incorporate heme exogenously, i.e. after expression and purification, heme is added to the purified apo-protein. See Patel et al, Protein Science, 18:1388-1400.
The computational method described here is capable of producing proteins that noncovalently bind ligands in vivo. We have observed loading of endogenous heme in a PS1 variant, where 7 terminal residues near the binding ligand site were deleted to allow incorporation of a heme ligand with its bulky, charged proprionate functional groups (FIG. 16). […] These apo-proteins remain competent to bind an endogenous ligand, for example heme (FIG. 17 and FIGS. 18A-18B). These proteins are the first de novo designed proteins to our knowledge that noncovalently bind heme in vivo.

Molecule	porphyrin loading ([1]; (CF3)4PZn, based on absorbance at 280 nm and 423 nm, 100 mM NaCl, 50 mM NaPi, pH 7.5)	binding of (CF3)4PZn ([1]; narrow electronic absorption bands of the porphyrin)	binding / loading of endogenous heme [2]	binding / loading of endogenous heme ([2]; listed as PS1 deletion variant)
B1	100%	bound (CF3)4PZn in a homogenous environment		
B2			high loading of endogenous heme	binds endogenous heme
